Test results taken from the supplement of paper PMC9732359.
± gives the uncertainty stated by the source.

Test: protein stability index of a GFP-peptide fusion (yeast GPS) (PSI 1-4); higher = more stable; sorted into four equal gates, so the index is relative within each strain
Summary of the method: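 Plasmids isolated from each sorting gate were PCR-amplified and Illumina-sequenced, and barcodes assigned the reads to strains. The gates, four of equal size, were set by GFP/Cherry fluorescence ratio on mid-log cultures in leucine-free medium. These cultures were yeast carrying a pooled library of tiled 17-residue yeast protein peptides fused downstream of GFP on a plasmid that also expresses Cherry. The protein stability index is the sum of every gate's read frequency times its gate number.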

Sequence	protein stability index (doa10∆)	protein stability index (pdr5∆)	protein stability index (san1∆)	protein stability index (ubr1∆)
DIEAGDDDDNNESSSNT [DIS3]	3.51 ± 0.26	3.4 ± 0.2	3.05 ± 0.11	2.79 ± 0.12
SMFLRIDYSNSQIRLYA [RGR1]	2.9 ± 0.076	2.44 ± 0.066	2.4 ± 0.068	2.44 ± 0.043
MGPPSGKTYMGWWGHMG [QCR8]			3.13 ± 0.2	
IDQVNELVTISWVQPRI [RPN9]	3.33 ± 0.069	3.28 ± 0.069	3.22 ± 0.045	3.15 ± 0.067
FGHIMEDFQVLRLGRGI [YDL088C/ASM4]	3.04 ± 0.066	2.96 ± 0.055	2.49 ± 0.068	2.96 ± 0.044
YEEFRDVAIENNTLSRY [RRP43]	3.24 ± 0.042	3.25 ± 0.043	3.178 ± 0.029	3.2 ± 0.035
AHLWQKIHESIVFDICQ [PRP8]	2.56 ± 0.09	2.69 ± 0.11	2.27 ± 0.13	2.39 ± 0.098
NIQHLLYGKRFFPYYVH [PRE7]	1.25 ± 0.031	1.45 ± 0.037	1.36 ± 0.091	1.3 ± 0.039
ITASTLLYADSLTAEAM [CYT1]	2.1 ± 0.064	2.31 ± 0.059	2.51 ± 0.095	2.18 ± 0.039
HHELVPKHIRLSSDEKR [RPB5]	2.9 ± 0.12	3.54 ± 0.12	2.82 ± 0.18	3.16 ± 0.073
RNVGKTLVNKSTGLKSA [RPS1A]	2.81 ± 0.098	2.72 ± 0.097	2.59 ± 0.12	2.96 ± 0.086
FLIIVPKSTLDNWRREF [ISW2]		2.37 ± 0.27	1.94 ± 0.16	1.99 ± 0.22
FASNKKINDESSIDKKS [YML103C/NUP188]	2.5 ± 0.066	2.92 ± 0.073	2.64 ± 0.068	3.14 ± 0.067
LSLTAVPSFLRPDITMY [GRR1]	2.17 ± 0.043	2.34 ± 0.045	2.18 ± 0.051	2.33 ± 0.043
MQHNPLAGKRGPKSGST [PGD1]	2.94 ± 0.064	2.74 ± 0.057	2.85 ± 0.063	2.96 ± 0.048
LQKVENQTIKEAKDAII [YIL149C/MLP2]	3.05 ± 0.046	3.18 ± 0.047	3.04 ± 0.045	3.13 ± 0.034
DDFEEDEDEEDDDDYNA [RPC31]		3.31 ± 0.12	3.2 ± 0.09	3.46 ± 0.29
DILLCYQKLFSQFINDH [SRB8]	2.37 ± 0.034	2.64 ± 0.037	2.64 ± 0.042	1.84 ± 0.034
YPESISNELIEHFSHFG [YDL088C/ASM4]	2.76 ± 0.067	3.02 ± 0.048	2.89 ± 0.043	2.93 ± 0.034
GSKLEDMSKILVDQGFN [RET1]	3.14 ± 0.066	3.2 ± 0.072	3.31 ± 0.034	3.29 ± 0.049
KEVASLPNKSTISKTVS [FAS2]	3.09 ± 0.12	3.05 ± 0.12	3 ± 0.08	3.21 ± 0.14
RRAAYGVVRYVMESGAK [RPS3]	1.5 ± 0.1	1.83 ± 0.13		1.84 ± 0.094
GEICKNYELEKIADNIS [YDL116W/NUP84]	3.13 ± 0.098	3.12 ± 0.084	2.96 ± 0.061	3.09 ± 0.061
DLIADTITNSSSSSDII [YML103C/NUP188]	2.89 ± 0.077	2.46 ± 0.046	2.63 ± 0.04	2.56 ± 0.044
TVWSANFEYDLSEYDAI [YOR098C/NUP1]	2.86 ± 0.27	3.31 ± 0.19	2.98 ± 0.27	3.06 ± 0.1
YRVTLESILQMNQGEGE [RPC34]	2.94 ± 0.19	3.16 ± 0.092	3.46 ± 0.26	2.97 ± 0.12
VLIKKGQSAGKLAAIVE [RPL14A]	2.99 ± 0.2	3.14 ± 0.16		2.77 ± 0.18

Sequence	protein stability index (doa10∆)	protein stability index (pdr5∆)	protein stability index (san1∆)	protein stability index (ubr1∆)
FTVDKKIAERSLLLKNY [SKP1]	3.44 ± 0.15	3.11 ± 0.14	2.92 ± 0.14	3.38 ± 0.27
YVIHGIELLSDLINILE [LIN1]		2.74 ± 0.25		2.43 ± 0.14
NLDGTKAVKLRKSYKNQ [ROX3]	3.43 ± 0.1	3.36 ± 0.096	3.39 ± 0.067	3.58 ± 0.046
KHVGFELLSMGNAKESK [SRP72]	2.88 ± 0.11	2.03 ± 0.14	2.4 ± 0.18	3.24 ± 0.14
GSIEEPELNVSLNLTDD [MCD1]	3.38 ± 0.058	3.44 ± 0.05	3.15 ± 0.064	3.39 ± 0.04
FIAVGQILPESQWNDSS [SIR3]	2.27 ± 0.16	3.08 ± 0.14	2.61 ± 0.24	2.71 ± 0.097
AHIEKQSLDTIGGSDAA [RPO21]	3.18 ± 0.097	3.25 ± 0.11	3.32 ± 0.12	2.95 ± 0.095
SALIENNLFRIIAELSF [YJL039C/NUP192]	2.22 ± 0.066	2.34 ± 0.056	2.04 ± 0.074	2.53 ± 0.052
AGASPMVNTQQPIVTGT [PRE4]	2.67 ± 0.17	2.67 ± 0.29		
IRDSGDRIDLRYSKRAG [RPO21]	3.43 ± 0.18	3.34 ± 0.23	3.25 ± 0.12	3.27 ± 0.19
NSADVDMDAQGRSDSNT [YGL100W/SEH1]	3.45 ± 0.096	3.39 ± 0.088	3.1 ± 0.12	3.29 ± 0.061
ESRKAFFLGYMINRLLL [RPB2]	1.17 ± 0.092	1.17 ± 0.11	1.12 ± 0.09	1.09 ± 0.072
EIKNDFIMVKGCIPGNR [RPL3]	1.1 ± 0.14	1.66 ± 0.08	1.48 ± 0.16	1.45 ± 0.11
GLARKFHNMLQTLYTGD [SSN3]	2.91 ± 0.24	3.25 ± 0.1	3.01 ± 0.077	2.79 ± 0.16
KPKAVARKSKEEREAAA [RPC53]	2.57 ± 0.19	3.12 ± 0.1	2.61 ± 0.15	2.64 ± 0.17
AEYAQLLAKRLSERKAE [RPS6A]	2.41 ± 0.051	2.11 ± 0.048	2.16 ± 0.082	2.28 ± 0.038
AEVNGGDDEATEIISTL [BRR2]	3.33 ± 0.094	3.1 ± 0.13	3.43 ± 0.095	3.11 ± 0.21
SAIDVLDPLTKDPVDFV [RPN2]	3.21 ± 0.088	3.29 ± 0.076	3.15 ± 0.074	3.12 ± 0.096
LNIGLGAVGLKDLTLCR [YCS4]	2.3 ± 0.079	2.41 ± 0.1	2.15 ± 0.095	2.53 ± 0.056
DNSESHPFIPLLKEKPN [RRP6]	1.93 ± 0.066	1.93 ± 0.059	1.99 ± 0.071	1.99 ± 0.051
VIFVERATPATLTELKD [SRB2]	2.84 ± 0.091	2.02 ± 0.063	2.4 ± 0.12	3.23 ± 0.098
AQNQGMFGAKPAGTSLF [YGL172W/NUP49]	2.32 ± 0.054	2.36 ± 0.064	2.34 ± 0.075	2.37 ± 0.04
IQNQSPQFNSPYDSNNS [SWI1]	2.97 ± 0.057	3 ± 0.053	2.74 ± 0.052	2.82 ± 0.046
QEGKISSVYRLKFAVQV [RPL26A]	3.09 ± 0.089	3.25 ± 0.11	3.1 ± 0.095	3.76 ± 0.12
EELLDNCIETFVAEKTT [SRB6]	2.43 ± 0.16			
TAPANTTDANGSKENYQ [MED2]	2.08 ± 0.066	2.06 ± 0.058	3.02 ± 0.047	2.86 ± 0.066
LQRDLFIRLPHWPLNWY [RGR1]	2.05 ± 0.095	2.15 ± 0.061	2.11 ± 0.082	2.11 ± 0.076
